This data set deals with the molecule itself. The data set can be described thus: crystal structure.

B1: His6-DcrBΔ37 (domain or fragment, Salmonella enterica, UniProt Q7CPJ3 38-185, looked up)
chain: ASGQPISLMDGKLSFSLPADMTDQSGKLGTQANNMHVYSDPTGQKAVIVIVGDNTDEALPVLANRLLEQQRSRDPQLQVVTNKSIELKGHTLQQLDSIISAKGQTAYSSIVLGKVDNQLLTIQVTLPADNQQKAQTTAENIINTLVIK
Consider B1, for which the binding result is “binds”.
